Data on 139 substances can be found in patent publication US20250011363A1, “OPTIMIZED SHORTENED PEPTIDE THAT BINDS TO ACETYLCHOLINE RECEPTOR, AND USE THEREOF” (SKINMED CO., LTD., priority 2021, published 2025).

The test concerns the target acetylcholine receptor (Homo sapiens, UniProt P02708). Briefly: SPR binding affinity (RU) of optimized 5mer/6mer/7mer peptides, Examples 6-7. The conditions noted are these: SPR, peptides tested at 10 μM; 5mer Top sequence. Here is the method:
Based on the frequencies of occurrence of the top 7 amino acids from Table 7 in Example 5, 600 peptides comprising these amino acids (top combinations) and those comprising the 13 less frequently occurring amino acids (bottom combinations) were synthesized for each series of 5mer, 6mer-1, and 6mer-2. The binding affinity of each sequence for the acetylcholine receptor was measured using Surface Plasmon Resonance (SPR) analysis method. The peptides were tested at a concentration of 10 μM. Additionally, the average binding affinities of the top and bottom combinations in each series are depicted in FIGS. 5-7.
Representative peptides identified in Example 6, two in each library, including 5mers (73, 311) and 6mers-1 (43, 210) and 6mers-2 (136, 233), were compared with the pre-optimized 6mer, 5mer-ND, and Synake.

Chain of acetylcholine receptor (P02708 21-457): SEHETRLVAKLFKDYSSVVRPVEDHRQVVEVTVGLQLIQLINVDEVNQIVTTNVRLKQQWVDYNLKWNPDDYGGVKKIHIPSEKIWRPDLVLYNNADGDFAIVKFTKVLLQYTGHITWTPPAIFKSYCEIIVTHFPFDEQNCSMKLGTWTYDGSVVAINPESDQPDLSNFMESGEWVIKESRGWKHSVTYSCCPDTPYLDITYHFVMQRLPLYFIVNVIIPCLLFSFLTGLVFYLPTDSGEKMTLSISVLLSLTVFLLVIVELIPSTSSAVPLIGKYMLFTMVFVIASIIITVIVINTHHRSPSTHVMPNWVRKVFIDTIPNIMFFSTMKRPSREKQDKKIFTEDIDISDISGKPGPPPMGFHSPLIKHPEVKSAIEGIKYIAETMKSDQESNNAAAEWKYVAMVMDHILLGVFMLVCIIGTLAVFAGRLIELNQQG

In the case of 5mer-1 (RVQCK), the Binding affinity turned out to be 54 Ru.

On to 5mer-2 (KRISR), for which the Binding affinity is recorded as 80 Ru.

In the case of 5mer-3 (KRVLK), the Binding affinity was 66 Ru.

Take 5mer-4 (KRFLR): the Binding affinity was 58 Ru.

On to 5mer-5 (KLFLR), for which the Binding affinity came out at 54 Ru.

As to 5mer-6 (RWQQK), the Binding affinity was 61 Ru.

As to 5mer-7 (RQLTK), the Binding affinity is given as 54 Ru.

As to 5mer-8 (RQRSR), the Binding affinity is given as 51 Ru.

As to 5mer-9 (RGVQR), the Binding affinity was found to be 77 Ru.

In the case of 5mer-10 (RVQRR), the Binding affinity was found to be 55 Ru.

Turning to 5mer-11 (KQRLR), the Binding affinity was 84 Ru.

As for 5mer-12 (RVFLR), the Binding affinity is listed as 70 Ru.

Consider 5mer-13 (RLISK), for which the Binding affinity was determined as 52 Ru.

As to 5mer-14 (RWLCK), the Binding affinity came out at 63 Ru.

As to 5mer-15 (KGVCK), the Binding affinity is reported as 75 Ru.

Turning to 5mer-16 (KLYTK), the Binding affinity was 66 Ru.

Turning to 5mer-17 (KRIYK), the Binding affinity was determined as 70 Ru.

For the substance 5mer-18 (RQLRR), the Binding affinity is recorded as 69 Ru.

Consider 5mer-19 (KRFQR), for which the Binding affinity came to 72 Ru.

As to 5mer-20 (RGRYK), the Binding affinity is 78 Ru.

Turning to 5mer-21 (KWFTR), the Binding affinity is given as 63 Ru.

As to 5mer-22 (RQQLK), the Binding affinity was determined as 66 Ru.

With 5mer-23 (KWLYK), the Binding affinity is given as 86 Ru.

For 5mer-24 (KSQCR), the Binding affinity came out at 67 Ru.

Turning to 5mer-25 (KVVYK), the Binding affinity was determined as 60 Ru.

Consider 5mer-26 (RQQQR), for which the Binding affinity stood at 65 Ru.

Turning to 5mer-27 (KGYLR), the Binding affinity was found to be 67 Ru.

As for 5mer-28 (RLLSR), the Binding affinity is reported as 74 Ru.

Take 5mer-29 (KGFCR): the Binding affinity is on record as 63 Ru.

With 5mer-30 (KSQLR), the Binding affinity came to 70 Ru.

Turning to 5mer-31 (RRLQR), the Binding affinity is on record as 65 Ru.

Regarding 5mer-32 (RQLSR), the Binding affinity amounted to 75 Ru.

For the substance 5mer-33 (RRISK), the Binding affinity is 59 Ru.

As for 5mer-34 (KRIRK), the Binding affinity is on record as 82 Ru.

For 5mer-35 (RWQYK), the Binding affinity was 80 Ru.

For 5mer-36 (RRLQK), the Binding affinity is on record as 60 Ru.

Turning to 5mer-37 (RRLSR), the Binding affinity was found to be 72 Ru.

Take 5mer-38 (RGYCK): the Binding affinity was 53 Ru.

With 5mer-39 (KQVSR), the Binding affinity came to 67 Ru.

Regarding 5mer-40 (KSVCR), the Binding affinity was determined as 67 Ru.

Take 5mer-41 (KVISK): the Binding affinity was found to be 82 Ru.

In the case of 5mer-42 (RQRLR), the Binding affinity came out at 83 Ru.

Take 5mer-43 (KSFYR): the Binding affinity is reported as 53 Ru.

Take 5mer-44 (RSRTR): the Binding affinity is 59 Ru.

For 5mer-45 (RVFQR), the Binding affinity amounted to 86 Ru.

For the substance 5mer-46 (KRQCK), the Binding affinity was determined as 76 Ru.

Take 5mer-47 (KGVRR): the Binding affinity is listed as 70 Ru.

Take 5mer-48 (RVYLR): the Binding affinity came to 62 Ru.

Take 5mer-49 (KWRTR): the Binding affinity worked out at 62 Ru.

Take 5mer-50 (KLLCR): the Binding affinity is given as 63 Ru.

5mer-51 (RSLQR): the Binding affinity was determined as 70 Ru.

For 5mer-52 (RQQYK), the Binding affinity turned out to be 50 Ru.

Regarding 5mer-53 (RLVTR), the Binding affinity worked out at 50 Ru.

With 5mer-54 (KWLQR), the Binding affinity is 66 Ru.

Regarding 5mer-55 (RRFSR), the Binding affinity is listed as 58 Ru.

Consider 5mer-56 (KRFCK), for which the Binding affinity stood at 59 Ru.

5mer-57 (KQLYR): the Binding affinity turned out to be 73 Ru.

With 5mer-58 (KWVSK), the Binding affinity stood at 75 Ru.

Consider 5mer-59 (KLQYR), for which the Binding affinity was determined as 68 Ru.

In the case of 5mer-60 (RLFTK), the Binding affinity is on record as 86 Ru.

5mer-61 (RLILK): the Binding affinity turned out to be 66 Ru.

In the case of 5mer-62 (KQLTK), the Binding affinity is 70 Ru.

Take 5mer-63 (RLLRK): the Binding affinity is 86 Ru.

Turning to 5mer-64 (KVVTR), the Binding affinity is 76 Ru.

On to 5mer-65 (RQIRR), for which the Binding affinity worked out at 67 Ru.

5mer-66 (KRLLR): the Binding affinity amounted to 80 Ru.

In the case of 5mer-67 (RQLYR), the Binding affinity is listed as 86 Ru.

Turning to 5mer-68 (RGFYK), the Binding affinity is 82 Ru.

Regarding 5mer-69 (RSRSR), the Binding affinity worked out at 50 Ru.

Turning to 5mer-70 (RLLQR), the Binding affinity stood at 69 Ru.

Take 5mer-71 (KLQSK): the Binding affinity was 68 Ru.

Take 5mer-72 (KLYRR): the Binding affinity stood at 50 Ru.

With 5mer-74 (RQITK), the Binding affinity was 87 Ru.

5mer-75 (KVQTK): the Binding affinity is 63 Ru.

5mer-76 (RGYRR): the Binding affinity is listed as 80 Ru.

As for 5mer-77 (KWRQK), the Binding affinity is given as 74 Ru.

Turning to 5mer-78 (KVICK), the Binding affinity came out at 79 Ru.

Turning to 5mer-79 (RWFLR), the Binding affinity was determined as 82 Ru.

As to 5mer-80 (KSRTR), the Binding affinity stood at 83 Ru.

For the substance 5mer-81 (RGIYR), the Binding affinity is 79 Ru.

5mer-82 (RQRYK): the Binding affinity is 84 Ru.

For 5mer-83 (KGFSR), the Binding affinity is 64 Ru.

With 5mer-84 (RVVRR), the Binding affinity was 67 Ru.

For the substance 5mer-85 (KGVLK), the Binding affinity was determined as 74 Ru.

On to 5mer-86 (RRLCK), for which the Binding affinity amounted to 55 Ru.

In the case of 5mer-87 (RQITR), the Binding affinity came out at 55 Ru.

With 5mer-88 (RRVQK), the Binding affinity was 73 Ru.

Turning to 5mer-89 (KRITK), the Binding affinity is reported as 77 Ru.

Regarding 5mer-90 (RWYTK), the Binding affinity is recorded as 86 Ru.

Regarding 5mer-91 (RQIQK), the Binding affinity turned out to be 55 Ru.

In the case of 5mer-92 (RVRLK), the Binding affinity is 62 Ru.

On to 5mer-93 (KWVYR), for which the Binding affinity was determined as 79 Ru.

For the substance 5mer-94 (RWFQR), the Binding affinity came out at 50 Ru.

Regarding 5mer-95 (RGRRK), the Binding affinity came to 68 Ru.

For 5mer-96 (RVLYR), the Binding affinity is listed as 55 Ru.

Regarding 5mer-97 (KRQLR), the Binding affinity was 52 Ru.

Take 5mer-98 (KWYCK): the Binding affinity is recorded as 68 Ru.

With 5mer-99 (RWICK), the Binding affinity is recorded as 58 Ru.

In the case of 5mer-100 (KVIRK), the Binding affinity is on record as 80 Ru.

For the substance 5mer-101 (RQQYR), the Binding affinity was 55 Ru.

Take 5mer-102 (RGFSK): the Binding affinity is reported as 82 Ru.

On to 5mer-103 (RWFLK), for which the Binding affinity was determined as 62 Ru.

On to 5mer-104 (RVVLK), for which the Binding affinity worked out at 74 Ru.

On to 5mer-105 (RGQQR), for which the Binding affinity is 50 Ru.

5mer-106 (KLLQR): the Binding affinity was determined as 78 Ru.

Regarding 5mer-107 (RWVSR), the Binding affinity came out at 56 Ru.

With 5mer-108 (KWQLK), the Binding affinity is given as 77 Ru.

With 5mer-109 (RLQCR), the Binding affinity was 68 Ru.

5mer-110 (KRRLK): the Binding affinity is listed as 76 Ru.

5mer-111 (KSVLK): the Binding affinity stood at 85 Ru.

Consider 5mer-112 (KRYYR), for which the Binding affinity is 58 Ru.

On to 5mer-113 (KRLRK), for which the Binding affinity is given as 79 Ru.

5mer-114 (KRQRR): the Binding affinity is on record as 82 Ru.

For the substance 5mer-115 (RWLLR), the Binding affinity was 75 Ru.

With 5mer-116 (RWRSK), the Binding affinity is 64 Ru.

For 5mer-117 (RSVYK), the Binding affinity amounted to 69 Ru.

Turning to 5mer-118 (RVICK), the Binding affinity amounted to 87 Ru.

In the case of 5mer-119 (KQIRK), the Binding affinity was determined as 60 Ru.

As to 5mer-120 (RQILK), the Binding affinity is on record as 68 Ru.

Take 5mer-121 (RQVTR): the Binding affinity amounted to 73 Ru.

For the substance 5mer-122 (RSYQK), the Binding affinity worked out at 78 Ru.

As for 5mer-123 (KWIRR), the Binding affinity was determined as 53 Ru.

On to 5mer-124 (KGFSK), for which the Binding affinity is listed as 58 Ru.

As for 5mer-125 (RVRQK), the Binding affinity worked out at 67 Ru.

Turning to 5mer-126 (RGVTK), the Binding affinity is listed as 61 Ru.

With 5mer-127 (RWVTK), the Binding affinity turned out to be 86 Ru.

Regarding 5mer-128 (RGVCR), the Binding affinity came out at 56 Ru.

Regarding 5mer-129 (KSLLK), the Binding affinity is listed as 63 Ru.

Consider 5mer-130 (RRFRK), for which the Binding affinity stood at 80 Ru.

As for 5mer-131 (KLRRR), the Binding affinity is on record as 72 Ru.

For the substance 5mer-132 (RVRCK), the Binding affinity came to 83 Ru.

On to 5mer-133 (KGQRK), for which the Binding affinity is given as 84 Ru.

As for 5mer-134 (RQFSK), the Binding affinity worked out at 61 Ru.

5mer-135 (RRLLR): the Binding affinity is 64 Ru.

Take 5mer-136 (RRIYK): the Binding affinity is listed as 75 Ru.

For 5mer-137 (KGVSK), the Binding affinity turned out to be 77 Ru.

Turning to 5mer-138 (RQRCR), the Binding affinity is listed as 71 Ru.

For 5mer-139 (RLQYK), the Binding affinity is reported as 73 Ru.

Regarding 5mer-140 (KWRLR), the Binding affinity was 69 Ru.
